Patent publication US11464853B2, “Amino acid and peptide conjugates and conjugation process” (Auckland UniServices Limited, priority 2016, dated 2022)
“Also recorded” adds a separate entry of the source. Where no end group is shown, it is not given here. [ ]: non-standard residue; d: D form.

Legend:
Type in all cases: cell-based
[1] = molecular target: T1, murine TLR2 (HEK-Blue™-mTLR2 cells) (Mus musculus, UniProt Q9QUN7); assay: TLR2 agonism in HEK-Blue-mTLR2 cells (SEAP reporter); conditions: for SEAP production / TLR2 agonism in HEK-Blue™-mTLR2: Example 2, FIG. 4A-4C, 10-12 h incubation, absorbance 635 nm; for SEAP production / TLR2 agonism in HEK-Blue™-mTLR2 / TLR2 agonism for mTLR2: result in words; for TLR2 agonism for mTLR2: Example 8, FIG. 6A, dilution series 10^−6 M to 10^−11 M
T1 construct: host or cells: HEK-Blue-mTLR2 (HEK cells co-transfected with murine TLR2 and the SEAP reporter)
Protocol: (§1) HEK-Blue™ Detection medium, HEK-Blue™-hTLR2 and HEK-Blue™-mTLR2 were purchased from Invivogen. These HEK-Blue cells were produced by co-transfection of both reporter gene SEAP (secreted embryonic alkaline phosphatase) and either human or murine TLR2, respectively. The SEAP reporter gene is under the control of the IFN-B minimal promoter fused to five AP-1 and five NFkB binding sites. Cells were cultured according to manufacturer's instructions.
(§2) On the day of the assay, TLR agonists 510, 520, 530, 540, 550 or PBS (negative control) were added at the indicated concentrations in 20 μl volume of endotoxin free water in a 96-well plate. HEK-Blue™-hTLR2 or […] were resuspended at ˜2.78×10^5 cells/ml in HEK-Blue™ Detection medium and 180 μl of the cell suspension added to each well (˜5×10^4 cells). Cells were incubated for 10-12 h at 37° C. in 5% CO2. SEAP expression was quantified using an EnSpire plate reader (PerkinElmer) at […]. Data presented as mean+/−SD ABS or mABS (635 nm) values for triplicate wells following background subtraction.
(§3) The TLR2 agonism of the agonists in Table 4 were investigated in HEK-Blue™-mTLR2 (FIG. 6A) and HEK-Blue™-hTLR2 (FIG. 6B) cells by following a procedure analogous to that described in section 2.1 of Example 2 across a 6-log10 dilution series (10^−6 M to 10^−11 M). (R/S)-Pam-1-Cys-NH2 was tested only at 10^−6 and 10^−9 M. Data presented as mean+/−SD absorbance (635 nm) values for triplicate wells following background subtraction, with dotted lines representing absorbance in wells treated with media only.

[2] = molecular target: T2, human TLR2 (HEK-Blue™-hTLR2 cells) (Homo sapiens, UniProt O60603); assay: TLR2 agonism in HEK-Blue-hTLR2 cells (SEAP reporter); conditions: for SEAP production / TLR2 agonism in HEK-Blue™-hTLR2: Example 2, FIG. 4A-4C, 10-12 h incubation, absorbance 635 nm
T2 construct: host or cells: HEK-Blue-hTLR2 (HEK cells co-transfected with human TLR2 and the SEAP reporter)
Protocol: as §1, §2, §3

[3] = system: CD8+ T cell clones with TLR2+ HLA-A2+ lymphoblastoid B-cell lines (LCL) as antigen-presenting cells; assay: Peptide processing and presentation to CD8+ T-cell clones by LCL (CD137 expression, flow cytometry); conditions: result in words
Protocol: Epstein-Barr Virus-transformed TLR2+ HLA-A2+ lymphoblastoid B-cell lines (LCL) were used as antigen-presenting cells in all peptide processing and presentation assays. LCL were incubated for 16 h in RF10+peptide/construct as indicated at desired concentrations. Untreated LCL were incubated in RF10 only. LCL/construct incubation was performed in 96 well plates (U-bottom, BD Biosciences) or in 48wp (flat bottom, BD Biosciences) depending of the nature of the assay and the numbers of LCL required per treatment. Following incubation, LCL were thoroughly washed with RPMI 1640 to remove unbound construct/peptide.
To enable flow cytometric detection, CD8+ T cell clones were pre-stained with 0.5 μM CellTrace™ Violet (“CTV”) (Life Technologies™) following manufacturer's protocols prior to seeding into APC wells. Loaded, washed LCL and CTV-stained T cell clones were seeded in 96 well plate wells (U-bottom) at a ratio of 4:1 (LCL: T cell) in duplicate (typical numbers of cells used were 1.25×10^4 cells/ml T cells and 5×10^4 cells/ml APC). Following seeding, plates were gently centrifuged (≤300×g, 3 minutes) to allow immediate interaction, and incubated for 26 hours in a standard cell culture incubator.
To detect T cell activation, samples were stained with anti-CD8:AlexaFluor700 and anti-CD137:PE antibodies (both Biolegend). […]

T2 sequence (O60603 21-784): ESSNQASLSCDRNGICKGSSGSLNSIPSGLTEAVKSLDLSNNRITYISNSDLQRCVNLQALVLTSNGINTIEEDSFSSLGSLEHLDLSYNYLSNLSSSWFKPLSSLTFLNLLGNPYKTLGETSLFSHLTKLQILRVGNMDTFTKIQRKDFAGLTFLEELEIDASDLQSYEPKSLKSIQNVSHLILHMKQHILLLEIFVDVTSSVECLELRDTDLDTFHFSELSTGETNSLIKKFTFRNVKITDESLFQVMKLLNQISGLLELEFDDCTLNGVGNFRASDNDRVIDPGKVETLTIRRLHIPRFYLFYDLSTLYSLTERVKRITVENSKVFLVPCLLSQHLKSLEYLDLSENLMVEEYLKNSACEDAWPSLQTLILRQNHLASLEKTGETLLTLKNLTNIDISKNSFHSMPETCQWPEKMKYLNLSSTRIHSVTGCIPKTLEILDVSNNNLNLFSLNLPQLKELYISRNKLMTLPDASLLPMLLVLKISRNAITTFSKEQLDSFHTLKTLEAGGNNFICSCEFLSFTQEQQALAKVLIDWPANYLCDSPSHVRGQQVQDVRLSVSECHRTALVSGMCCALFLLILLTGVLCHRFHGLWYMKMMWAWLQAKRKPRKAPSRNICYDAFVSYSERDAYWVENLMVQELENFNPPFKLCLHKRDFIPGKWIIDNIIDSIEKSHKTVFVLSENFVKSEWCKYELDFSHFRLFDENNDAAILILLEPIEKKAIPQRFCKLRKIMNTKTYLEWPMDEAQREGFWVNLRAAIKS
T1 sequence (Q9QUN7 25-784): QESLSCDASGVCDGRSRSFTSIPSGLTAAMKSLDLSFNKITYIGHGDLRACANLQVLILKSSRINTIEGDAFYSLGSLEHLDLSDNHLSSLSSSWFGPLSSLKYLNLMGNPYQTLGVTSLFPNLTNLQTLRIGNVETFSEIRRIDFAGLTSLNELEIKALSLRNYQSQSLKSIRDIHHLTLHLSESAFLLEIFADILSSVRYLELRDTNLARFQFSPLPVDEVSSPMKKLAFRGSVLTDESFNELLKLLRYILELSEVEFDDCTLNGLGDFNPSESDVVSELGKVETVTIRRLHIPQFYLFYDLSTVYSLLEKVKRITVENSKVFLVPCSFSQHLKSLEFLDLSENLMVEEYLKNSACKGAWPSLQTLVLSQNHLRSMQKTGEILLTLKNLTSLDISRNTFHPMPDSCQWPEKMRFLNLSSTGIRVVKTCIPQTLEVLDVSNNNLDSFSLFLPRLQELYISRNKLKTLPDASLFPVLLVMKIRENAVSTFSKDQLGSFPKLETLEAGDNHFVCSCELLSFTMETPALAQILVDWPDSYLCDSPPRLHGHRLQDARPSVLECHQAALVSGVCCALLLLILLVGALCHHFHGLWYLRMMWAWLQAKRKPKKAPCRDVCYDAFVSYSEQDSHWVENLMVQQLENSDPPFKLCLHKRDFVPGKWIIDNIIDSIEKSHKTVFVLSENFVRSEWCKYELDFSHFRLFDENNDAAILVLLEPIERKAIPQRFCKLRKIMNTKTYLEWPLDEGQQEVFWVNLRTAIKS

Substance | SEAP production / TLR2 agonism in HEK-Blue™-mTLR2 [1] | SEAP production / TLR2 agonism in HEK-Blue™-hTLR2 ([2]; result in words) | other results
521: Pam2Cys-SKKKK conjugated to peptide NLVPMVATVK(Ac) (Pam2Cys-SKKKKNLVPMVATVK(Ac)) [compound 521, reference compound] | relative loss of agonism when compared to unconjugated Pam3Cys-SKKKK | relative loss of agonism when compared to unconjugated Pam3Cys-SKKKK | 
551: Homo-Pam2Cys(NHAc)-SKKKK conjugated to peptide NLVPMVATVK(Ac) ({homoPam2Cys(NHAc)}-SKKKKNLVPMVATVK(Ac); also: conjugated to lipopeptide, linkage not given here) [compound 551] | did not result in any loss of agonism, and homoPam2Cys(NHAc)-SKKKK-NLVPMVATVK(Ac) remained a more potent agonist than Pam3Cys-SKKKK, particularly at nM concentrations | did not result in any loss of agonism, and homoPam2Cys(NHAc)-SKKKK-NLVPMVATVK(Ac) remained a more potent agonist than Pam3Cys-SKKKK, particularly at nM concentrations | T-cell clone activation (live clonal cells positive for CD137) ([3]; NLV-bearing constructs, FIG. 4D, LCL loaded 16 h, co-culture 26 h): comparable T-cell clone activation to NLV-bearing-Pam2Cys-SKKKK (521), and superior T-cell clone activation to NLV-bearing-Pam1Cys-SKKKK (511)
552: Homo-Pam2Cys(NHAc)-SKKKK conjugated to peptide VPGVLLKEFTVSGNILTIRLTAADHR (homo-Pam2Cys(NHAc)-SKKKK conjugate) [compound 552] |  |  | T-cell clone activation (live clonal cells positive for CD137) ([3]; VPG-bearing constructs and VPG long peptide, FIG. 4E, epitope EFTVSGNIL): superior T-cell clone activation to VPG-bearing-Pam1Cys-SKKKK (512); also recorded: superior to VPG peptide alone (500)
(R)-Pam2Cys-SKKKK-NH2: enantiopure epimeric TLR agonist of Table 4 ([(R)‑Pam2Cys]SKKKK-NH2; also: (R) epimer, enantiopure) [reference compound] |  |  | TLR2 agonism for mTLR2 [1]: increase in NKκB production at 10^−10 and 10^−11 M only
(R)-Pam3Cys: enantiopure epimeric TLR agonist of Table 4 (CSKKKK) [reference compound] |  |  | NFκB production maintained at lower concentration than paired (S)-version ([1]; mTLR2, (R)- vs (S)-epimer): ≥ 10 fold; NFκB production maintained at lower concentration than paired (S)-version ([2]; hTLR2, (R)- vs (S)-epimer): ≥ 10 fold
Pam1Cys-SKKKK-NH2: TLR agonist of Table 4 ([Pam1Cys]SKKKK-NH2) [reference compound] |  |  | TLR2 agonism for mTLR2 [1]: no agonism at any concentration for mTLR2; TLR2 agonism for hTLR2 ([2]; Example 8, FIG. 6B, dilution series 10^−6 M to 10^−11 M, result in words): agonism for hTLR2 at 10^−6 M but not 10^−9 M
Pam1Cys-SKKKK: known TLR2 agonist, prepared in-house; lipid/linker component Pam1Cys-SKKKK without peptide ([Pam1Cys]SKKKK) [reference compound] | not active in HEK-Blue™-mTLR2 at sub-μM concentrations |  | 
Pam2Cys-SKKKK: known TLR2 agonist, prepared in-house; lipid/linker component Pam2Cys-SKKKK without peptide ([Pam2Cys]SKKKK) [reference compound] | most potent agonist tested | most potent agonist tested | 
homoPam2Cys(NH2)-SKKKK: Lipopeptide TLR2 agonist of the invention: Homo-Pam2Cys(NH2) lipid component with SKKKK linker, no epitope peptide ([homoPam2Cys(NH2)]SKKKK) | equivalent SEAP production to Pam3Cys-SKKKK; also recorded: demonstrably more potent TLR2 agonists than Pam1CYs-SKKKK; also recorded: active in both HEK-Blue™-mTLR2 and -hTLR2 to sub-nM concentrations | comparable production in HEK-Blue™-hTLR2; also recorded: demonstrably more potent TLR2 agonists than Pam1CYs-SKKKK; also recorded: active in both HEK-Blue™-mTLR2 and -hTLR2 to sub-nM concentrations | 
homoPam2Cys(NHAc)-SKKKK: Lipopeptide TLR2 agonist of the invention: Homo-Pam2Cys(NHAc) lipid component with SKKKK linker, no epitope peptide ([homoPam2Cys(NHAc)]SKKKK) | equivalent SEAP production to the most potent agonist tested (Pam2Cys-SKKKK) at ≥1 nM and comparable production at sub-nM concentrations; also recorded: demonstrably more potent agonist than Pam3Cys-SKKKK or homoPam2Cys(NH2)-SKKKK; also recorded: demonstrably more potent TLR2 agonists than Pam1CYs-SKKKK; also recorded: active in both HEK-Blue™-mTLR2 and -hTLR2 to sub-nM concentrations | equivalent SEAP production to the most potent agonist tested (Pam2Cys-SKKKK) at ≥1 nM and comparable production at sub-nM concentrations; also recorded: demonstrably more potent agonist than Pam3Cys-SKKKK or homoPam2Cys(NH2)-SKKKK; also recorded: demonstrably more potent TLR2 agonists than Pam1CYs-SKKKK; also recorded: active in both HEK-Blue™-mTLR2 and -hTLR2 to sub-nM concentrations | 
